# Assay results reported in article PMC11686378.
# B1: DNA primase PriSL (PriS-PriL heterodimer) from P. abyssi, in solution (complex)
# chain 1: MLLREVTKEERKEFYSNEWNAKQIPDFILQNLDKREFGFDHTGEGPSDRKNSYTDVRDLEDYIKATAPYAVYSSVAFYEKPQEMEGWLGAELVFDIDAKDLPLRRCNHEPGKVCPICLNDAKEIARDTLIVLKEELGFEDVHVVYSGRGYHIRVMDGWALSLDSKSRERILSFISASEIEDHSEFRKMLLERRGWFVLNHGYPRVFRLRFGYFILRVKVEHLINFGIRKNIAKRILDNKETIYEEFVRKGILAAFPDGVGIESLAKLFALSTRFSKAYFDGRVTVDLKRILRLPSTLHSKVGLIAKYIGNNERDVMRFNPFKHAVPKFRRKEVKEEYKRFLEENF
# chain 2: MLDPFSEKAKELLKEFGSINDFLNSIPRIVDVEEVIERVKIASDRKLLEGFVDIEDIKDLAQFYALLGALSYSPYGLELELVKKANILLYSERIRREKEIRPEEISLRINKAIEFPIDDLKKIERVFGKLPEYTIHLAEFLDLIPGERLSEYYIYNGNVYLRKEDLIKVWMKAFERNIEKSVNMLYEIRDELPGFFREVLGGIKEVAEQEFGKSGEVKAGTLRPDLFPPCVKNALKGVPQGLRNYAITVLLTSFLSYARICPNPPRRNVRVKDCIDDIRIITDEILPLIIEAANRCSPPLFEDQPNEIKNIWYHLGFGYTANPKLEDSGNSTWYFPPNCDKIRANAPQLCTPDKHCKYVRNPLTYYLRRLYLEGRKNASKGGNERGEKRVLQQ
# Biological target: Replication Protein A (RPA) heterotrimer from Pyrococcus abyssi, wild type (Pyrococcus abyssi)
# Test: BLI; RPA or RPA^ΔWH nucleoprotein filaments on a 3'-TEG-biotin 50-nt ssDNA held on streptavidin sensors; PriSL (1.56-100 nM) or PolD (15.62-1000 nM) in solution; steady-state analysis; 25 °C, buffer E with 0.2 mg/ml BSA
binder,measurement,value
B1,Kd,24 nM
